Measured values as given in the supplement of paper PMC7877785.
± gives the uncertainty stated by the source.

Assay: self-splicing fitness, log relative to wild type (ln ratio); higher = more splicing; Tetrahymena group I intron in knt gene, E. coli kanamycin selection, DiMSum; sequences stand for … in CUCUCU…GGAGGGAAAAGUUAUCAGGCAUGCACCUGGUAGCUAGUCUUUAAACCAAUAGAUUGCAUCGGUUUAAAAGGCAAGACCGUCAAAUUGCGGGAAAGGGGUCAACAGCCGUUCAGUACCAAGUCUCAGGGGAAACUUUGAGAUGGCCUUGCAAAGGGUAUGGUAAUAAGCUGACGGACAUGGUCCUAACCACGCAGCCAAGUCCUAAGUCAACAGAUCUUCUGUUGAUAUGGAUGCAGUUCACAGACUAAAUGUCGGUCGGGGAAGAUGUAUUCUUCUCAUAAGAUAUAGUCGGACCUCUCCUUAAUGGGAGCUAGCGGAUGAAGUGAUGCAACACUGGAGCCGCUGGGAACUAAUUUGUAUGCGAAAGUAUAUUGAUUAGUUUUGGAGUACUCGUGGUCG
Outline: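 Six replicate transformations of E. coli BL21(DE3) with a pET-22b(+) library were grown overnight at 37°C or 30°C. The library randomised all eight P1ex-region intron nucleotides, the intron lying in the knt kanamycin-resistance gene, and plates were LB agar with or without 25 μg/mL kanamycin plus 100 μg/mL carbenicillin, 50 μM IPTG and 0.2% rhamnose. Pooled colonies were amplicon-sequenced on an Illumina HiSeq 2500, and fitness is the DiMSum error-weighted combination of wild-type-normalised replicate fold changes, kanamycin versus none.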

| Sequence | self-splicing fitness (ln) (30 °C) | self-splicing fitness (ln) (37 °C) |
| --- | --- | --- |
| GAGCAGCAAUAUUACGCUUG | -2.4 ± 0.13 | -0.209 ± 0.12 |
| GAGCAGCAAUAUUACGGAUG | -3.85 ± 0.25 | -1.73 ± 0.15 |
| GAGCAGCAAUAUUACGGGAG | -3.68 ± 0.32 | -2.9 ± 0.35 |
| GAGCAGCAAUAUUACGGGGU | -2.96 ± 0.16 | -3.18 ± 0.17 |
| GAGCAGCAAUAUUACGGGUG | -4.47 ± 0.22 | -2.17 ± 0.15 |
| GAGCAGCAAUAUUACGGUCG | -2 ± 0.17 | -2.28 ± 0.17 |
| GAGCAGCAAUAUUACGUAGA | -2.24 ± 0.1 | -1.03 ± 0.13 |
| GAGCAGCAAUAUUACGUAGC | -0.99 ± 0.11 | -1.65 ± 0.13 |
| GAGCAGCAAUAUUACGUCGC | -2.31 ± 0.14 | -1.47 ± 0.15 |
| GAGCAGCAAUAUUACGUUCA | -1.38 ± 0.13 | -0.931 ± 0.13 |
| GAGCAGCAAUAUUACGUUCU | – | -2.48 ± 0.26 |
| GAGCAGCAAUAUUACGUUUG | -2.84 ± 0.11 | -1.31 ± 0.11 |
| GAGGAGCAAUAUUACGAACA | -2.69 ± 0.23 | -2.07 ± 0.16 |
| GAGGAGCAAUAUUACGACGU | -1.37 ± 0.13 | -0.0936 ± 0.15 |
| GAGGAGCAAUAUUACGAGCG | -3.24 ± 0.35 | -1.55 ± 0.28 |
| GAGGAGCAAUAUUACGAGUA | – | -1.51 ± 0.37 |
| GAGGAGCAAUAUUACGAUAC | -1.9 ± 0.18 | -2.05 ± 0.38 |
| GAGGAGCAAUAUUACGAUGA | -2.31 ± 0.24 | -1.42 ± 0.35 |
| GAGGAGCAAUAUUACGAUGG | -3.58 ± 0.2 | -2.44 ± 0.22 |
| GAGGAGCAAUAUUACGAUGU | -3.29 ± 0.33 | -2.69 ± 0.32 |
| GAGGAGCAAUAUUACGCACU | – | -1.49 ± 0.36 |
| GAGGAGCAAUAUUACGCGGA | -3.27 ± 0.4 | -2.76 ± 0.41 |
| GAGGAGCAAUAUUACGCGUA | -2.97 ± 0.27 | -1.6 ± 0.37 |
| GAGGAGCAAUAUUACGGCGA | -1.1 ± 0.23 | -0.687 ± 0.2 |
| GAGGAGCAAUAUUACGGCGG | -2.33 ± 0.2 | -1.7 ± 0.38 |

| Sequence | self-splicing fitness (ln) (30 °C) | self-splicing fitness (ln) (37 °C) |
| --- | --- | --- |
| GAGGAGCAAUAUUACGGGAG | -4.37 ± 0.29 | -3.63 ± 0.35 |
| GAGGAGCAAUAUUACGGGGU | -4.47 ± 0.34 | -2.64 ± 0.22 |
| GAGGAGCAAUAUUACGGUAA | -3.65 ± 0.37 | -2.22 ± 0.36 |
| GAGGAGCAAUAUUACGGUGC | -3.87 ± 0.28 | -2.32 ± 0.15 |
| GAGGAGCAAUAUUACGUAAG | -3.04 ± 0.27 | -2.13 ± 0.34 |
| GAGGAGCAAUAUUACGUAUG | -3.97 ± 0.47 | -2.83 ± 0.4 |
| GAGGAGCAAUAUUACGUGCC | -3.24 ± 0.26 | -2.41 ± 0.28 |
| GAGUAGCAAUAUUACGAAAU | -2.68 ± 0.21 | -1.37 ± 0.23 |
| GAGUAGCAAUAUUACGACGU | 0.156 ± 0.093 | 0.524 ± 0.11 |
| GAGUAGCAAUAUUACGACUA | 0.106 ± 0.14 | -0.537 ± 0.13 |
| GAGUAGCAAUAUUACGAGGA | – | -1.81 ± 0.4 |
| GAGUAGCAAUAUUACGAGUA | -1.92 ± 0.16 | -1.28 ± 0.17 |
| GAGUAGCAAUAUUACGAUAA | -2.41 ± 0.25 | -1.18 ± 0.2 |
| GAGUAGCAAUAUUACGCACA | -0.806 ± 0.14 | -0.0514 ± 0.18 |
| GAGUAGCAAUAUUACGCCAU | -2.49 ± 0.19 | -2.33 ± 0.31 |
| GAGUAGCAAUAUUACGCCUA | -1.21 ± 0.1 | -0.374 ± 0.11 |
| GAGUAGCAAUAUUACGCGAA | – | -0.658 ± 0.37 |
| GAGUAGCAAUAUUACGCUAG | -2.38 ± 0.18 | -0.481 ± 0.18 |
| GAGUAGCAAUAUUACGCUGA | – | -1.55 ± 0.39 |
| GAGUAGCAAUAUUACGGCAA | -1.84 ± 0.17 | -0.547 ± 0.18 |
| GAGUAGCAAUAUUACGGCAU | -0.177 ± 0.089 | 0.37 ± 0.11 |
| GAGUAGCAAUAUUACGGCUA | -1.11 ± 0.29 | -1.37 ± 0.31 |
| GAGUAGCAAUAUUACGGGAA | -2.33 ± 0.21 | -2.14 ± 0.19 |
| GAGUAGCAAUAUUACGGUGC | -1.19 ± 0.15 | 0.00945 ± 0.18 |
